Experiment: soluble on expression in E. coli; label from the status in PepcDB or PDB records

Question: With “AHHHHHHGSINNAQPPIYEEGLEELMQELKGKYHATNDYRWAILNSDITFITVGTPSKPDGSIDLTHVKQAAKSIGKALRDKEDYHVVVVKSTVLPGTTEEVVKPILEKHSGKKAFKDFGLAMNPEFLREGVALKDFLNPDRIVLGVQDEKTKKILEELYEPINAPKLIVDIKTAEMIKYASNAFLATKISFANEIGNICKKLGIDSWKVFEGVGLDHRISPHFFKTGIGFGGSCFPKDVKALIKKAEEIGENPLILKAVIEVNERQPLKMIELLKKHIPELKGRKIGVLGLAFKPNTDDVRETRAYIIIKKLLEEGASVIAYDPKAMENFKRFYPDVSGGIEYATSPEDVLKSTEIILIVTEWPDFEELDYSGKIVIDGRRIKAAERTARIYEGVCW” as the sequence, how does the “soluble on expression in E. coli” value read?
Answer: soluble

Question: Which “soluble on expression in E. coli” value does the source give for “AHHHHHHGSKAFISIDLEGLPYIVSREHLFVKGALYNEARKIATKIAKIAAEKLHEEGFEEIVIADSHGPMVNIIPEEMPSYVSIVRGFPRPLSMVAFGKGSDIAIFLGYHAKAGTSFATFDHTYSGATIDKIIISGIEVSEFLLNSMVLGEWGVPIGLVAGDEALKEDLKYVPWAEFIPLKKASGRYSALSPSMEAIEKELKAGIKRAVEKLNNKELRAFKIETPVDVEIRFLNSAYAEVADLLPGVERIDGKTIRFTANTVEDAYKIMEVLTLAAAGVSYIVSR” here?
Answer: not soluble

Question: For “AHHHHHHGSKAMEFVGYKKSGKTTCVENVAKVLKKEKGYRVAIAKSMHSNFDKEETDTWKFSRIADYVIVHAQDIDGLLFKAKDVNALFSMVSADILLIEGFKSITHVPKVICAKSEEEVRELNNGLAIAVSGVIANKGIKEIDGLPVINATKEPEKLAELVEKKGFMLPNIDCGLCGYNCAEMAKLIVKGEKTVKDCVVLSSTPKVTIKIDGQVLPLKDWVQELVEKTIKGMLSAMKGYREGRKIEIVIKE”, which “soluble on expression in E. coli” value is on record?
Answer: soluble

Question: With “AHHHHHHGSKERLEKLVKFMDENSIDRVFIAKPVNVYYFSGTSPLGGGYIIVDGDEATLYVPELEYEMAKEESKLPVVKFKKFDEIYEILKNTETLGIEGTLSYSMVENFKEKSNVKEFKKIDDVIKDLRIIKTKEEIEIIEKACEIADKAVMAAIEEITEGKREREVAAKVEYLMKMNGAEKPAFDTIIASGHRSALPHGVASDKRIERGDLVVIDLGALYNHYNSDITRTIVVGSPNEKQREIYEIVLEAQKRAVEAAKPGMTAKELDSIAREIIKEYGYGDYFIHSLGHGVGLEIHEWPRISQYDETVLKEGMVITIEPGIYIPKLGGVRIEDTVLITENGAKRLTKTERELL” as the sequence, how does the “soluble on expression in E. coli” value read?
Answer: not soluble

Question: For “AHHHHHHGSKLIEMLKEITQVPGISGYEERVREKIIEWIKDYADYKVDEIGNLIVELGEGEVKAVFMAHMDEIGLLITGITQDGKLRFRKVGGIDDRLLYGRHVDVITENGKLDGVIGALPPHLNVKGVKDVVPWYQLTIDIGAESKEEALSLGVKPLDYAVFKKHFSVLNNKIVSTRSLDDRFGVVALVQAIRNLVDHELSGKFIFAFTVQEEIGLKGAKFLAEKYSPEYAFAIDSFACCSELTGDVRLGGGAVIRAVDNSAIYSRDLARKVWEIAEKNNIPIQIGVTGGGTDASVFQHKSKVLALSVPMKYLHSEVEMLNVKDLEALIALIEAITFEI”, which “soluble on expression in E. coli” value is on record?
Answer: soluble

Question: Which “soluble on expression in E. coli” value does the source give for “AHHHHHHGSKLTHVDEKGVKMVEVGHKKDMYRRAIAKGRIKLKPETIKLIREGKIEKGNVLAAAQIAGILAVKKTFDIIPLCHPIPLTGVDITFDFGEDYIEVTCEVRAIYKTGVEMEALTGVSVALLTIWDMVKAVEKDEKGQYPYTKIEEIRVVEKIKEERS” here?
Answer: soluble

Question: For “AHHHHHHGSKVVALLSSGIDSPVAIHLMASRGVEVYPLHFRQDEVKERKVRKVVKKLQEIHGEKVKDPHTVNAYEVQAPVFEKLKEIKKGKWTCVFCKYTMYIVAESYAKKVGASAIITGDSLGQVASQTLDNLLVISTATKLPVIRPLIGLDKEEIVKIAKEIGTFEISIEEEPPCPFVPKFPVVRAGLGEFQKILSQVKDKLPRGDL”, which “soluble on expression in E. coli” value is on record?
Answer: soluble

Question: With “AHHHHHHGSLEVQGISKKWKDFHLKDISFSVMDGEYFIVLGPSGAGKTVLLEIIAGIIPPDGGKVLLDGKDITLLPPEKRGIAYVPQNYALFPNMSVFDNIAFGLKVRRVPRSEIEKRVLEISEVLGIRHLLHRKPRTLSGGEQQRVAVARALVIEPEIILLDEPFANLDVQIRSRLINEMKRWRRELGFTAIHVTHSFEEALALGDRVGIMLNGKLVQVGEIREVFSRPNSEEVAKFLGFENIIEGIADGRVLHVGKLRIELPLEAKGRVRIGIRPEDILISTERIKTSARNVFKAKVEAIEDVGPLVKLTLNVCDITLRAFITRSSLVELGIEEGKEVYASFKASAIHVF” as the sequence, how does the “soluble on expression in E. coli” value read?
Answer: soluble

Question: For “AHHHHHHGSLKLSDFIPLTMLREGETGVVVDIQSGVNARGKLLSMGITPGVRVRMIKSRKPGPVIIGIGSSKIALGWGIASKIIVRRE”, which “soluble on expression in E. coli” value is on record?
Answer: not soluble

Question: With “AHHHHHHGSRYVKLPKENTYEFLERLKDWGKLYAPVKISDKFYDFREIDDVRKIEFHYNRTIMPPKKFFFKPREKLFEFDISKPEYREVIEEVEPFIIFGVHACDIYGLKILDTVYLDEFPDKYYKVRREKGIIIGISCMPDEYCFCNLRETDFADDGFDLFFHELPDGWLVRVGTPTGHRLVDKNIKLFEEVTDKDICAFRDFEKRRQQAFKYHEDWGNLRYLLELEMEHPMWDEEADKCLACGICNTTCPTCRCYEVQDIVNLDGVTGYRERRWDSCQFRSHGLVAGGHNFRPTKKDRFRNRYLCKNAYNEKLGLSYCVGCGRCTAFCPANISFVGNLRRILGLEENKCPPTVSEEIPKRGFAYSSNIRGDGV” as the sequence, how does the “soluble on expression in E. coli” value read?
Answer: not soluble

Question: For “AHHHHHHGSSIKIELFGITFENPLILASGVVDMTPELLRRAHKEGAGGVVTKSIGIEPRKGYDNPTVVEVPCGLINAMGLPNPGWKAFLEEFEKESFDFPVIVSIFGGNPEEFAFLAEKLERVGDAFELNLSCPHAKGYGLEIGQDPENVYRVVKAVKDVTDKPVIAKLTPNTSDITKLGLAAEKAEADGVSAINTLKAIAIDIYAKRPILSNKFGGYSGPGIKPIALRAVYDLASKLDIPIIGIGGITTWQDAVEFLLAGASAVQIGTAVYLKGFSVFREIAEGIRKYLEEEGFSSVKEIIGLAQKV”, which “soluble on expression in E. coli” value is on record?
Answer: soluble

Question: With “AHHHHHHGSSKDRMVELLQEHFELNLYEARAYVALVAFGVLTPAELASVSEVPAPRTYDVLRSLEKKGFAMTQPGKTNKYRPVHPANVLEKFIQDWQERVKEELEAKKKAKEELLELMAPLIETEVPKYGVERVWVVRGIKNSTLKTKEMLEEAQNEILLADDGFIAVNLEDDIIKAVDRGVKTKILLTKNLLPRLKASKIIDYAKEGKLELRALDKFDLPMLICDEEVFFALEDLAARYFNYETQVWIKDHRVVALFKEKFNEYWEKAEKV” as the sequence, how does the “soluble on expression in E. coli” value read?
Answer: soluble

Question: With “AHHHHHHGSSLGGSADDTYLHEIIKKAYEAGIVIVAAAGNEGASSPSYPAAYPEVIAVGATDINDQVPYWSNRQPEVSAPGVDILSTYPDDTYETLSGTSMATPHVSGVVALIQAAYYLKYGKVLPVGTFDDMSTNTVRGILHLAVDDLGDPGWDIYYGYGIIRADKAIQLALF” as the sequence, how does the “soluble on expression in E. coli” value read?
Answer: not soluble

Question: Which “soluble on expression in E. coli” value does the source give for “AHHHHHHGSTKRVKVITDPEVIKVMLEDTRRKILQLLRNREMTISQLSEILGKMPQTIYHHIEKLKEAGLVEVKRTEMKGNLVEKYYGRTADVFYINLYMGDEELRYLARSRLKTKLDIFKKLGYKFDEEELLNVMDRILEKEHEVKVEISKEIENVEDSLKEFSNEDIIHAIEWLAMARLAQDEEYIELVKKLGQILKR” here?
Answer: soluble

Question: Which “soluble on expression in E. coli” value does the source give for “AHHHHHHGSTKVYIENYGCARNRADGEIMAGLLLSSGYEIVEGEENADIVVVNSCAVKDPTEVKIARRIRELLDRGKKVIVTGCLPHVNPDAIDERVSAVLGVKSIDRIVQAVEYALRGEKLISVPDWRKRNLDKLDFPRLSPRGVHFILPIAEGCLNGCTYCATRSARGVLKSYSPEKIVEWVKWAIRQGYKEIWLSAEDTGCYGFDIGTNLAKLLDEITAIEGEFRIRVGMMNPNHVLKFLDELIEAYKDEKVYKFLHLPVQSGDNEILRRMGRTYTVEEFEEIVNAFRREFPDLNLHTDIIVGFPGESEEAFQRSLELIKRIKPDKVNVSRYSPRPGTIAAKWKQLPGWVVKERSRIMHRVRLQISYEINQRYVGRKVDILVHGEGKKGNVDAVTMNYKHIIIPRGEKGEFARAKVNGATSTYLLGEIVD” here?
Answer: not soluble

Question: For “AHHHHHHGSTQKKLIEYTNPSTSRRKITRIPIDSPDYPPLLKQIKDPPKIIYAIGNVRLLNKPAVAIVGTRQPSERGEYYAEKVAEFYAKQGFVIVSGLALGIDSIVIKTALKTGAHVIGVLPSPVNDIVPKSNEKLAEKIIRSGGLLISELPEGTKPKKYHFVRRNRIISGISFAVVVIESELKDGTMHTVKFAKQQRRIILVTNLPASGNAKLKNEGFPILDF”, which “soluble on expression in E. coli” value is on record?
Answer: soluble

Question: With “AIAAKDILGEAGLHFDELNKLRVLDPEVTQQTIELKEECKDFVDKIGQFQKIVGGLIELVDQLAKEAENEKMKAIGARNLLKSIAKQREAQQQQLQALIAEKKMQLERYRVEYEALCKVEAEQNEFIDQFIFQK” as the sequence, how does the “soluble on expression in E. coli” value read?
Answer: soluble

Question: Which “soluble on expression in E. coli” value does the source give for “AIAASALEQFVNNVRQLSAQGQMTQLCELINKSGELLAKNLSHLDTVLGALDIQEHSLGVLAVLFVKFSMPNIPDFETLFSQVQLFISTCNGEHIRYATDTFAGLCHQLTNALVERKQPLRGISILKQAIDKMQMNTNQLTSVHADLCQLCLLAKCFKPAVPFLELDMMDICKENGAYDAKHFLCYYYYGGMIYTGLKNFERALYFFEQAITTPAMAVSHIMLEAYKKYILVSLILHGKVQQLPKYTSQIVGRFIKPLSNAYHELAQIYATNNPAELRALVNKHSETFTRDNNSGLVKQCLSSLYKKNIQRLTKTFLTLSLQDMASRVQLSGPQEAEKYVLHMIEDGEIYASINQKDGMVCFHDNPEKYNNPAMLHKIDQEML” here?
Answer: soluble

Question: With “AIAESTKSNDIPILRNVSDSFSDHYGKYLQRCGIFVPKDGDSSGPDAYVVFHNGQTRYVVAFSFTFYHKTEFSKRDIEKEAEQFFQEVISVLNDGSPSSVQLCFQFVVVCTRYDRSVVFSSEEQNIVEDASYLVTEHSAGSTLNESRRSCLQLVVVSQRNLERFLGRENFDILRKIGKASREEFRKDFSVWCKTVFESMSDEYVSPLEAKPFNVTLRVARNIRPRTNEENRMQMEGFQTAMQVEEGNTRGEQRVAASSSLSSSFDWNTFLREYCGLSEEDVAYCLPKVEDIDMDELPAVTKEILRDLGIDKPALRLKIRSSIRSYLANER” as the sequence, how does the “soluble on expression in E. coli” value read?
Answer: soluble

Question: With “AIAGANEDQEMELEALRSIYEGDNSFRELSPVSFQYRIGEDGDPKAFLIEVSWTETYPQTAPVISMNAFFNNTISSAVKQSILAKLQEAVEVNLGTAMTYTLFEYAKDHKEQFMENHHPGNSATPVANIISVETPTTAPSSKKKEKKEQLSKAQKRKLADKTDHKGELPRGWNWVDVVKHLSKTGSKDDE” as the sequence, how does the “soluble on expression in E. coli” value read?
Answer: soluble

Question: Which “soluble on expression in E. coli” value does the source give for “AIANDEYYLELSENPVQFENASSVNNVFFDEANKQVFAVRSGGATGVVVKGPDDKSSVAFRMDDKGEVKCIKFSLGNKILAVQRTTKSVDFINFIPDYPHLEFSHECKTKNASILGFCWTNWNEIVFVTDQGIEFYQVLPDKRTLKLLKSQSINVNWYIYCPETAVLLLSTTVQGNVLQPFAFKTATMSKMSKFEIELPAVPKPAKLSLSERDIAVATIYDQLYVMYLKHHSRTTNSPGAEVVLYHLPREGTCKRTNVLRLNTTGKFAINVVDNLVVVHHQTTQTSLIYDIKLRELDGNVNVHQPVLPARSINPFKIPLTGPAAAPSQAPLPCELYSSSWSVFQPDIIISASEGFLWYLQVKLQPTLNLLQDKGKLMDFLLRRRDCKMVILSVCSQMLIGGDKGNLSVVATVFDKLNQVYKEYLDAEQAYTAVNEQNSCFTLYLANTYNNM” here?
Answer: soluble

— the DeepSol protein solubility set
